The results in this text go back to PMC11786531.

In the assay the target is heparan sulfate proteoglycans. The assay is described as follows: SPR competition (HSPG with LF or LF mutant flowed over PEDV S protein immobilised on a CM5 chip). As to conditions: parent: est. 5.0; read off a plot.
Turning to “Lactoferrin (from UniProt P14632) G1607L”, the response is 3.5 RU.

For “Lactoferrin (from UniProt P14632) P1641L”, the response amounted to 69 RU.

As to “Lactoferrin (from UniProt P14632) P1963L”, the response turned out to be 69 RU.
